According to paper PMC7378745:

Columns and labels:
Test in all cases: Tox-Luc (ToxR-TM-MBP) TM domain dimerisation assay in E. coli, luciferase read-out
[1] = molecular target: YT/LL mutated human CD28 TM domain in the ToxLuc construct (ToxR-TM-MBP); settings: parent: est. 23000; read off a plot
[2] = molecular target: Y145L/T150L (YT/LL) mutated mouse CD28 TM domain in the ToxLuc construct (ToxR-TM-MBP); settings: read off a plot
[3] = molecular target: mutant GpA (G83I) TM domain in the ToxLuc construct (ToxR-TM-MBP); settings: parent: est. 5500; read off a plot

## WT human CD28 TM domain in the ToxLuc construct (ToxR-TM-MBP) YT/LL
[1]
  response (Relative Light units): 2900

## WT mouse CD28 TM domain in the ToxLuc construct (ToxR-TM-MBP) Y145L; T150L
[2]; parent: est. 2500
  response (Relative Light units): 270
[2]; parent: est. 19000
  response (Relative Light units): 3100

## wild type (WT) GpA TM domain in the ToxLuc construct (ToxR-TM-MBP) G83I
[3]
  response (Relative Light units): 700
